Target: Yeast Hsp90 wildtype construct without the coiled-coil motif and without cysteine mutation (yeast) (UniProt P02829)
Test: neutron spin echo spectroscopy; Hsp90 wildtype at 50 mg mL^-1 (614 µM) in D2O buffer with 150 mM KCl, 10 mM MgCl2, 295 K; effective diffusion compared with rigid-body models of dimer and hexamer

Substance “Yeast Hsp90 wildtype construct without the coiled-coil motif and without cysteine mutation, P02829 1-709 (natural protein; other documents disagree on this pair)” has a stoichiometry N of 6.

— PMC10754087
